Substitutions are numbered along the chain they refer to.
B1: mutS leader ARN3* (structured_RNA)
RNA: GGUGCGCCUUAUGUGAUUACAACGAAAAUAAAAACCAUCACACCCCAUUUAAUAUCAGGGAACCGGACAUAACCCCAUGAGUGCCAUCGAGAAUUUCGACGCCCAU
B2: mutS leader ARN1* (structured_RNA)
RNA: B1 RNA with A27C, A28G, A31U, A33U, C85A, C88A, G91A

Columns and labels:
[1] = biological target: T1, Hfq (Escherichia coli, UniProt P0A6X3 1-102); assay: EMSA
[2] = biological target: T1, Hfq; assay: EMSA; remark: listed apart in the source

T1 sequence (P0A6X3 whole entry): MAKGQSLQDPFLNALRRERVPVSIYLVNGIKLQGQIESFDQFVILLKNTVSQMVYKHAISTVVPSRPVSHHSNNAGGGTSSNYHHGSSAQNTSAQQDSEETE

Binder	Kd [1]	binding signal [2]
B1	~0.019 µM	–
B2	–	~3 fold lower affinity than WT
